From paper doi:10.1101/2022.11.10.516034 (bioRxiv, 2022)
Like-named read-outs stand apart in the source and are kept apart here.

B1: Twinkle C-terminal domain with linker (CTD, amino acids 360-684) (domain or fragment, human, UniProt Q96RR1 360-684, looked up)
chain: LPAWHKSIVSFRQLREEVLGELSNVEQAAGLRWSRFPDLNRILKGHRKGELTVFTGPTGSGKTTFISEYALDLCSQGVNTLWGSFEISNVRLARVMLTQFAEGRLEDQLDKYDHWADRFEDLPLYFMTFHGQQSIRTVIDTMQHAVYVYDICHVIIDNLQFMMGHEQLSTDRIAAQDYIIGVFRKFATDNNCHVTLVIHPRKEDDDKELQTASIFGSAKASQEADNVLILQDRKLVTGPGKRYLQVSKNRFDGDVGVFPLEFNKNSLTFSIPPKNKARLKKIKDDTGPVAKKPSSGKKGATTQNSEICSGQAPTPDQPDTSKRSK
B2: full-length (FL) human Twinkle (aa 43-684) (enzyme, UniProt Q96RR1 43-684, looked up)
chain: ETLQALDMPVLPVTATEIRQYLRGHGIPFQDGHSCLRALSPFAESSQLKGQTGVTTSFSLFIDKTTGHFLCMTSLAEGSWEDFQASVEGRGDGAREGFLLSKAPEFEDSEEVRRIWNRAIPLWELPDQEEVQLADTMFGLTKVTDDTLKRFSVRYLRPARSLVFPWFSPGGSGLRGLKLLEAKCQGDGVSYEETTIPRPSAYHNLFGLPLISRRDAEVVLTSRELDSLALNQSTGLPTLTLPRGTTCLPPALLPYLEQFRRIVFWLGDDLRSWEAAKLFARKLNPKRCFLVRPGDQQPRPLEALNGGFNLSRILRTALPAWHKSIVSFRQLREEVLGELSNVEQAAGLRWSRFPDLNRILKGHRKGELTVFTGPTGSGKTTFISEYALDLCSQGVNTLWGSFEISNVRLARVMLTQFAEGRLEDQLDKYDHWADRFEDLPLYFMTFHGQQSIRTVIDTMQHAVYVYDICHVIIDNLQFMMGHEQLSTDRIAAQDYIIGVFRKFATDNNCHVTLVIHPRKEDDDKELQTASIFGSAKASQEADNVLILQDRKLVTGPGKRYLQVSKNRFDGDVGVFPLEFNKNSLTFSIPPKNKARLKKIKDDTGPVAKKPSSGKKGATTQNSEICSGQAPTPDQPDTSKRSK

Experiments:
[1] = biological target: the molecule itself; test: SEC
[2] = biological target: the molecule itself; test: SEC; remark: listed apart in the source

Protein | stoichiometry N [1] [subunit] | stoichiometry N [2]
B1 | ~12 | –
B2 | – | ~7
